Target: T1, purified HAstV-8 virus particles (strain Yuc-8) (human astrovirus serotype 8 (HAstV-8), strain Yuc-8) (UniProt Q9IFX1)
T1 sequence 1: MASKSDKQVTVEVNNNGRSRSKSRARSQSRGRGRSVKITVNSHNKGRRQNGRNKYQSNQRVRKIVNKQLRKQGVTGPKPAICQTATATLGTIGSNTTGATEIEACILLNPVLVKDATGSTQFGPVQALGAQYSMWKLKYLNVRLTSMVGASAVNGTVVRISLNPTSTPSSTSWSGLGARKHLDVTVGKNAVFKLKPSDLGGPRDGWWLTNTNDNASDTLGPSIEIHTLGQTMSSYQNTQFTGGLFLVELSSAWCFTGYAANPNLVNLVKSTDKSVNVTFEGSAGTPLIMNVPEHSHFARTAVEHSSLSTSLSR
T1 sequence 2: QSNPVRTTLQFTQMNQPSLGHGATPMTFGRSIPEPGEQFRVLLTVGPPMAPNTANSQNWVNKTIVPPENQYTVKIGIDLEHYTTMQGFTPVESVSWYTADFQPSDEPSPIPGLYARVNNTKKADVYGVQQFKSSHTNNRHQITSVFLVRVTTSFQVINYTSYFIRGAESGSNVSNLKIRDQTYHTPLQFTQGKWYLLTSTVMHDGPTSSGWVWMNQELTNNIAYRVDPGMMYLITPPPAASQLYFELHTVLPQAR

Chain of recombinant human FCGRT & B2M heterodimer protein (SinoBiological #CT009-H08H) (P55899 24-297): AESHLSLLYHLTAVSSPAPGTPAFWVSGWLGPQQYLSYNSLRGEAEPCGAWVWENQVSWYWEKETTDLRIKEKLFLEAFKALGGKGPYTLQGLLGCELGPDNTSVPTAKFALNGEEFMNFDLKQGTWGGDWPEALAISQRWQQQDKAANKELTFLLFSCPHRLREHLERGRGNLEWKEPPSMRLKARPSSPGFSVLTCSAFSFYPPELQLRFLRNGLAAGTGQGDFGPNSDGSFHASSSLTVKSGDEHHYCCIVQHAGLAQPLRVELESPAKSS
Chain of recombinant human FCGRT & B2M heterodimer protein (SinoBiological #CT009-H08H) (P61769 21-119): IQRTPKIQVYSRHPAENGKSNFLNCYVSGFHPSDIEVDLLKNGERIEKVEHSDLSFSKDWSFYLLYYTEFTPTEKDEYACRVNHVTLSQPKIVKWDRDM

With “recombinant human FCGRT & B2M heterodimer protein (SinoBiological #CT009-H08H) (from UniProt P55899 24-297; P61769 21-119) (receptor)” the FcRn concentration that lowers by 50% the infectivity of the WT chimeric HAstV-1/HAstV-8 virus in Caco-2 cells (neutralization assay with different concentrations of FcRn) was 100 ng/mL.

— PMC12289001
